Article PMC9884143 (2023)
Positions count from the first letter of the chain named.

B1: CoV2-YD-2 (antibody, V domains shown)
VH: QVQLVESGGGLVQPGGSLRLSCSISGFSFGYSAIGWFRQAPGLEREWVSTISSNGDDTVYADSVKGRFTISRDNAKNTVYLQMDSLKPEDTAVYYCARSFRWSRLPRDYDSWGQGTQVTVS
B2: CoV2-YD-6 (antibody, V domains shown)
VH: QVQLVESGGGSVQVGGSLRLSCAASGMTFSSATMAWYRQAPGKQREWVAGIGSGGRTSYASSMKGRFTISRDNAKNTVYLQMNSLKPEDTAVYYCYTALLSGGDYWGQGTQVTVS
B3: CoV2-YD-9 (antibody, V domains shown)
VH: QVQLVESGGGLVQAGGSVRLSCAASGITFSNYASQWFRQTPGKAREFVAAISGGGTTSYAASVKGRFTLSRDNAKNTVYLQMNDLKFEDTAVYYCHTADLYSDYWGQGTQVTVS
B4: CoV2-YD-3 (antibody, V domains shown)
VH: QVQLVESGGGLVQAGGSLRLSCVASTTWFSNFGMGWYRQAPGKQRELVAGITYDGTTKYVDSVKGRSTIARDNAKNTVSLQMNSVKPGDTAIYYCNTYPSQLWNWGQGTQVTVS
B5: CoV2-YD-33 (antibody, V domains shown)
VH: DVQLVESGGGLVQAGGSLRLSCVASGSTDSNYVMGWHRQTSGKQSEWVASIESGGEKKIVDSVKGRFTISRDNAKNTVYLQMNSLKPEDTAVYYCFYERLAWDTSTYWGQGTQVTVS
B6: CoV2-YD-34 (antibody, V domains shown)
VH: B5 VH with H37Y, S45R, E52N, K57T, K58R, I59S, V60A, V63E, R71G, A91G
B7: CoV2-YD-8 (antibody, V domains shown)
VH: QVQLVESGGGLVQPGGSLSLSCAASGSMNSMNPMGWYRQAPGKEREVVARISSGGSTTYTDSVKGRFTISRDSAKNTVYLQMNSLKPDDTAVYYCYIIDDYGVQYWGKGTQVTVS
B8: CoV2-YD-7 (antibody, V domains shown)
VH: QVQLVESGGGLVQPGGSLRLSCTASVHPFSIYDMGWYRQAPGKQRVLVASISSDGTTDYADSVKGRFTISRDNAKNTVYLQMDSLKPEDTAVYYCNLAYVTWGQGTQVTVS

Each binder was assayed against SARS-CoV-2 Spike S1 (Wuhan; S1 or RBD) (Severe acute respiratory syndrome …, UniProt P0DTC2) (assay: SPR).

Binder	Kd [nM]
B1	3.68
B2	2.91
B3	0.0164
B4	0.0409
B5	3.54
B6	0.541
B7	0.126
B8	3.24
